# Source: patent US6268347A, “Prosaposin-derived peptides” (Regents of the University of CA, priority 1999, dated 2001)
# Where a SMILES comes first, the peptide text is derived from it. [ ]: non-standard residue; d: D form.
# B1: Prosaposin: 517 amino acid protein, precursor of four sphingolipid activator proteins (saposins A, B, C, D) (protein, UniProt P07602 1-524, looked up)
# chain: MYALFLLASLLGAALAGPVLGLKECTRGSAVWCQNVKTASDCGAVKHCLQTVWNKPTVKSLPCDICKDVVTAAGDMLKDNATEEEILVYLEKTCDWLPKPNMSASCKEIVDSYLPVILDIIKGEMSRPGEVCSALNLCESLQKHLAELNHQKQLESNKIPELDMTEVVAPFMANIPLLLYPQDGPRSKPQPKDNGDVCQDCIQMVTDIQTAVRTNSTFVQALVEHVKEECDRLGPGMADICKNYISQYSEIAIQMMMHMQPKEICALVGFCDEVKEMPMQTLVPAKVASKNVIPALELVEPIKKHEVPAKSDVYCEVCEFLVKEVTKLIDNNKTEKEILDAFDKMCSKLPKSLSEECQEVVDTYGSSILSILLEEVSPELVCSMLHLCSGTRLPALTVHVTQPKDGGFCEVCKKLVGYLDRNLEKNSTKQEILAALEKGCSFLPDPYQKQCDQFVAEYEPVLIEILVEVMDPSFVCLKIGACPSAHKPLLGTEKCIWGPSYWCQNTETAAQCNAVEHCKRHVWN
# modifications: full-length
# Legend:
# [1] = test system: Chung model rats; assay: Tactile allodynia (von Frey 50% paw withdrawal threshold) in Chung model rats; format: in vivo, rat; details: any concentration tested, intrathecal
# Procedure: The surgical procedure previously described by Kim and Chung, supra, 1992, was performed on male Sprague-Dawley rats weighing 120 to 150 grams to induce an allodynic state. Briefly, the rats were anesthetized with halothane; subsequently, the left L-5 and L-6 spinal nerves were isolated adjacent to the vertebral column and ligated with 6.0 silk suture distal to the dorsal root ganglion. After a ten to fourteen day post operative recovery period, a spinal catheter was introduced. Five days following the second surgery, intrathecal drug administration was accomplished using a gear driven micro-injection syringe connected to a spinal catheter inserted through the foramen magnum. Prior to testing, the rats were placed in clear plastic wire meshed cages and allowed to accommodate.
# To assess the 50% mechanical threshold for paw withdrawal, a von Frey hair was applied to the hind foot avoiding the foot pad. Each of the von Frey hairs, which are calibrated to bend at increasing log forces, were pressed perpendicularly to the foot with sufficient force to cause slight bending for a duration of approximately six to eight seconds. A positive response was noted if the foot was sharply withdrawn. […] The X-axis indicates the time after the injection at which point the hypersensitivity to pressure on the foot pad was measured.
# [2] = test system: neurite outgrowth; details: cited from earlier work
# [3] = test system: neuroblastoma cells; details: cited from earlier work
# [4] = test system: choline acetyltransferase activity; details: cited from earlier work
Molecule,side effects such as sedation [1],neurite outgrowth [2],cell death in neuroblastoma cells [3],choline acetyltransferase activity [4]
"CC[C@H](C)[C@H](NC(=O)[C@H](CCC(=O)O)NC(=O)[C@H](CCC(=O)O)NC(=O)[C@@H](NC(=O)[C@H](C)NC(=O)[C@H](CC(N)=O)NC(=O)[C@H](CC(N)=O)NC(=O)[C@H](CC(=O)O)NC(=O)[C@@H](NC(=O)[C@H](CC(C)C)NC(=O)[C@@H](C)NC(=O)[C@@H](N)[C@@H](C)O)[C@@H](C)CC)[C@@H](C)O)C(=O)N[C@@H](CC(C)C)C(=O)N[C@@H](Cc1ccc(O)cc1)C(=O)O [SEQ ID NO: 2, TXLIDNNATEEILY] (H-T[dA]LIDNNATEEILY-OH)",No side effects were observed,–,–,–
CC[C@H](C)[C@H](NC(=O)[C@H](CCC(=O)O)NC(=O)[C@H](CCCCN)NC(=O)[C@H](CCC(=O)O)NC(=O)[C@@H](NC(=O)[C@H](CCCCN)NC(=O)[C@H](CC(N)=O)NC(=O)[C@H](CC(N)=O)NC(=O)[C@H](CC(=O)O)NC(=O)[C@@H](NC(=O)[C@H](CC(C)C)NC(=O)[C@H](CCCCN)NC(=O)[C@@H](NC(=O)[C@@H](NC(=O)[C@H](CCC(=O)O)NC(=O)[C@H](CCCCN)NC(=O)[C@@H](NC(=O)[C@H](CC(C)C)NC(=O)[C@H](Cc1ccccc1)NC(=O)[C@H](CCC(=O)O)NC(=O)[C@@H](N)CS)C(C)C)C(C)C)[C@@H](C)O)[C@@H](C)CC)[C@@H](C)O)C(=O)N[C@@H](CC(C)C)C(=O)O [SEQ ID NO: 1] (H-CEFLVKEVTKLIDNNKTEKEIL-OH),No significant side effects such as sedation were observed,–,–,–
B1,–,stimulates motor neurite outgrowth in vitro and in vivo,prevents cell death,increases choline acetyltransferase activity
